B1: REGN7257: fully human IL-2Rγ antibody comprising the HCVR of SEQ ID NO: 1 and the LCVR of SEQ ID NO:5 (antibody, V domains shown)
VH: EVQLVESGGGLVQPGGSLRLSCAASGFIFSSYEMHWVRQAPGKGLEWISYISSSGTTIYYADSVKGRFTISRDNAKNSLYLHMNSLRAEDTAVYYCTRARITGTFDVFDIWGQGTMVTVSS
VL: DIQMTQSPSSLSASVGDRVTITCRASQSISSYLNWYQQKPGKAPKLLIFAASNLQSGVPSRFSGSRSGTDFTLTISSLQPEDFATYYCQQNYNIPYTFGQGTKLEIK

Key:
[1] = system: BALB/cJ tail skin graft on VG mice humanized for IL2RG; experiment: In vivo skin graft rejection model, REGN7257 with MMF (Example 4); design: species or system mouse; conditions: REGN7257 25 mg/kg s.c. 2 times per week from 2 days prior to transplant; MMF 100 mg/kg i.p. daily from day of transplant; until rejection; FIG. 9
Source text: (§1) BALB/cJ mice obtained from The Jackson Laboratory (Bar Harbor, ME) were used as skin graft donors, and MHC mismatched Velocigene® (VG) background mice (C57BL/6NTac (75%)/129S6SvEvTac (25%)) from the Regeneron Velocigene® breeding colony that were genetically modified to replace the endogenous IL2RG ectodomain with the corresponding human sequences were used as recipients. The skin graft was obtained from the tail of the donor mice. The skin was the peeled off using forceps and punched with a 10 mm diameter biopsy punch.
REGN7257 was administered subcutaneously at doses of 25 mg/kg at a frequency of 2 times per week starting 2 days prior to transplant, and continuing until rejection. MMF was administered intraperitoneally daily at a dose 100 mg/kg starting on the day of transplant, and continuing until rejection. Recipients with the surgical site shaved were anesthetized by isoflurane via a nose cone and administered an analgesic (buprenorphine-sustained release) (ZooPharm). The shaved dorsal area was swabbed with applications of povidone-iodine and alcohol. The graft bed was created midway laterally between the dorsal and ventral sides of the mouse by pinching skin with forceps followed by skin excision utilizing a sterile 10 mm diameter biopsy skin punch. […]

[2] = system: donor-specific antibodies (total IgG binding to CT26.WT cells); experiment: Detection of donor specific antibodies by flow cytometry (Example 1); type: in vivo, mouse; conditions: blood sampled day 56 post-transplant; MFI at 1/512 serum dilution; FIG. 3
Description: Detection of donor specific antibodies by flow cytometry: Blood was sampled at the day 56 post-transplant timepoint to assess formation of donor-specific antibodies. CT26.WT (ATCC® CRL-2638™) cells were cultured in tissue culture flasks to 80% confluent. Cells were washed with 1×DPBS and dissociated with TrypLE Express reagent (Gibco) by incubating at room temperature for 5 minutes and washing flask with complete RPMI 1640 media. Cells were then centrifuged (500 g, 10 minutes), and resuspended at 5 million cells/ml with 1×DPBS with 1:50 dilution of 4 μg/mL of Fc block (Tonbo) for 15 minutes at room temperature. The suspension was plated at 250,000 cells/well (50 μL) in a 384 well V-bottom plate.
50 μL of serially diluted sample serum from transplanted mice and from non-engrafted wild type VG mouse (C57BL/6NTac (75%)/129S6SvEvTac (25%)) and wild type BALB/cJ mouse obtained from The Jackson Laboratory was added to its respective well and incubated at 37° C. for 45 minutes. Following 2 washes with MACS buffer (500 g, 4 minutes), the cells were resuspended in 50 μL of LIVE/DEAD™ Fixable Blue Dead Cell Stain Kit (Invitrogen) diluted 1:500 in 1×DPBS at 50 μL total volume per well and incubated at room temperature for 15 minutes. […] Acquired events were analyzed with FlowJo (BD). […]

[3] = system: BALB/cJ tail skin graft on VG mice humanized for IL2RG; experiment: In vivo skin graft rejection model, REGN7257 induction with abatacept maintenance (Example 2); design: species or system mouse; conditions: induction: 2 doses 25 mg/kg s.c. (2 days prior and day of transplant); maintenance: 25 mg/kg s.c. 2 times per week from day of transplant until rejection; FIG. 5
Description: (2) “Scabbing” and contraction of the graft at later times was used as indicators of graft rejection. The complete rejection timepoint is recorded as the first day where 100% of the graft tissue was necrotic. Significance was determined by Log-rank (Mantel-Cox) test with Bonferroni correction (α=0.005, k=10).

[4] = system: BALB/cJ tail skin graft on VG mice humanized for IL2RG; experiment: In vivo skin graft rejection model, REGN7257 monotherapy (Example 1); design: species or system mouse; conditions: 25 mg/kg s.c. 2 times per week starting 3 weeks prior to transplant until rejection
Source text: as §1
As detailed in Table 2 below, VG mice (humanized for IL2RG), used as graft recipients, were administered no treatment (negative control), an isotype control (REGN1945), or REGN7257 subcutaneously at doses 25 mg/kg at a frequency of 2 times per week starting 3 weeks prior to transplant, and continuing until rejection (FIG. 1). […]
These grafts will display scabbing and contraction several […] from bandage removal. […] The complete rejection timepoint is recorded as the first day where 100% of the graft tissue was necrotic. Rejection onset was recorded as the first day where there were signs of rejection (i.e., redness). Significance was determined by Log-rank (Mantel-Cox) test with Bonferroni correction (adjusted p value 0.00555, K=9).

Molecule	Median Survival Time [MST] of skin graft [1]	generation of donor-specific antibodies [2]	skin graft median survival time [MST] (time to complete skin graft rejection) [3] [days]	overall skin graft survival (time to complete rejection) ([4]; FIG. 2B)	onset of skin graft rejection ([4]; vs no mAb and isotype control, FIG. 2A)
COc1c(C)c2c(c(O)c1C/C=C(\C)CCC(=O)OCCN1CCOCC1)C(=O)OC2 [MMF, mycophenolate mofetil, reference compound]	10				
B1	12	prevented	11	improved	delayed

Source: patent publication US20260273048A1, “METHODS OF IMPROVING TRANSPLANT SURVIVAL USING IL-2 RECEPTOR GAMMA CHAIN ANTIBODIES” (Regeneron Pharmaceuticals, Inc., priority 2023, published 2026)
